Source: the supplement of paper PMC9112550, “Optimization of the antimicrobial peptide Bac7 by deep mutational scanning” (BMC Biology, 2022)

Test system: Escherichia coli TOP10
Assay: shrunken log2 fold change of peptide-encoding DNA abundance (4.5 h post-induction vs induction); higher = less antimicrobial activity (less host growth inhibition)
Settings: time post-induction: 4.5 h; library: site-saturation at positions 5, 18, 19, 20
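Note: peptides expressed intracellularly from a pBAD plasmid library in pooled LB shake-flask culture, induced with 0.3% L-arabinose, DNA abundance read by NGS, three biological replicates, DESeq2 with apeglm shrinkage.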

Row | Sequence | shrunken log2 fold change
1 | RRIRSRPPRLPRPRPRPDEHPRP | -0.125
2 | RRIRSRPPRLPRPRPRPDELPRP | -0.0328
3 | RRIRSRPPRLPRPRPRPDEQPRP | 0.202
4 | RRIRSRPPRLPRPRPRPDFNPRP | -0.411
5 | RRIRSRPPRLPRPRPRPDFQPRP | -0.0122
6 | RRIRSRPPRLPRPRPRPDFTPRP | 0.0298
7 | RRIRSRPPRLPRPRPRPDHAPRP | 0.0838
8 | RRIRSRPPRLPRPRPRPDHNPRP | -0.308
9 | RRIRSRPPRLPRPRPRPDHYPRP | -0.341
10 | RRIRSRPPRLPRPRPRPDIYPRP | -0.194
11 | RRIRSRPPRLPRPRPRPDKIPRP | 0.11
12 | RRIRSRPPRLPRPRPRPDKTPRP | 0.178
13 | RRIRSRPPRLPRPRPRPDMFPRP | -0.212
14 | RRIRSRPPRLPRPRPRPDNKPRP | -0.256
15 | RRIRSRPPRLPRPRPRPDPKPRP | -0.00687
16 | RRIRSRPPRLPRPRPRPDPVPRP | 0.377
17 | RRIRSRPPRLPRPRPRPDQAPRP | -0.107
18 | RRIRSRPPRLPRPRPRPDQIPRP | 0.0424
19 | RRIRSRPPRLPRPRPRPDQNPRP | -0.182
20 | RRIRSRPPRLPRPRPRPDRCPRP | -0.115
21 | RRIRSRPPRLPRPRPRPDSPPRP | 0.242
22 | RRIRSRPPRLPRPRPRPDTCPRP | -0.225
23 | RRIRSRPPRLPRPRPRPDTEPRP | -0.0911
24 | RRIRSRPPRLPRPRPRPDTFPRP | 0.024
25 | RRIRSRPPRLPRPRPRPDVEPRP | 0.00664

Row | Sequence | shrunken log2 fold change
26 | RRIRSRPPRLPRPRPRPDVKPRP | -0.0928
27 | RRIRSRPPRLPRPRPRPDWDPRP | 0.157
28 | RRIRSRPPRLPRPRPRPDWMPRP | 0.0892
29 | RRIRSRPPRLPRPRPRPDYFPRP | -0.133
30 | RRIRSRPPRLPRPRPRPDYGPRP | -0.0953
31 | RRIRSRPPRLPRPRPRPEAFPRP | -0.0131
32 | RRIRSRPPRLPRPRPRPEAPPRP | 0.67
33 | RRIRSRPPRLPRPRPRPECPPRP | -0.0934
34 | RRIRSRPPRLPRPRPRPECQPRP | -0.00188
35 | RRIRSRPPRLPRPRPRPEEEPRP | 1.47
36 | RRIRSRPPRLPRPRPRPEENPRP | 0.64
37 | RRIRSRPPRLPRPRPRPEFDPRP | 0.202
38 | RRIRSRPPRLPRPRPRPEFHPRP | -0.162
39 | RRIRSRPPRLPRPRPRPEFKPRP | 0.00218
40 | RRIRSRPPRLPRPRPRPEFLPRP | 0.278
41 | RRIRSRPPRLPRPRPRPEGYPRP | -0.0595
42 | RRIRSRPPRLPRPRPRPEISPRP | -0.094
43 | RRIRSRPPRLPRPRPRPELTPRP | 0.316
44 | RRIRSRPPRLPRPRPRPEMRPRP | 0.84
45 | RRIRSRPPRLPRPRPRPENGPRP | 0.0751
46 | RRIRSRPPRLPRPRPRPENTPRP | -0.258
47 | RRIRSRPPRLPRPRPRPEPGPRP | 0.197
48 | RRIRSRPPRLPRPRPRPEPTPRP | 0.467
49 | RRIRSRPPRLPRPRPRPEPVPRP | 1.44
50 | RRIRSRPPRLPRPRPRPEPWPRP | 0.548

Row | Sequence | shrunken log2 fold change
51 | RRIRSRPPRLPRPRPRPEQLPRP | -0.0808
52 | RRIRSRPPRLPRPRPRPEQNPRP | 0.274
53 | RRIRSRPPRLPRPRPRPEQVPRP | 0.243
54 | RRIRSRPPRLPRPRPRPESAPRP | 0.278
55 | RRIRSRPPRLPRPRPRPESFPRP | -0.0898
56 | RRIRSRPPRLPRPRPRPESHPRP | -0.44
57 | RRIRSRPPRLPRPRPRPETGPRP | 0.105
58 | RRIRSRPPRLPRPRPRPETIPRP | 0.148
59 | RRIRSRPPRLPRPRPRPEVMPRP | 0.104
60 | RRIRSRPPRLPRPRPRPEVWPRP | 0.779
61 | RRIRSRPPRLPRPRPRPEWMPRP | 0.0203
62 | RRIRSRPPRLPRPRPRPEYMPRP | -0.609
63 | RRIRSRPPRLPRPRPRPFDPPRP | -0.102
64 | RRIRSRPPRLPRPRPRPFDTPRP | -0.201
65 | RRIRSRPPRLPRPRPRPFFMPRP | -0.288
66 | RRIRSRPPRLPRPRPRPFFWPRP | 0.485
67 | RRIRSRPPRLPRPRPRPFGEPRP | -0.066
68 | RRIRSRPPRLPRPRPRPFGFPRP | -0.137
69 | RRIRSRPPRLPRPRPRPFGQPRP | -0.197
70 | RRIRSRPPRLPRPRPRPFHDPRP | -0.204
71 | RRIRSRPPRLPRPRPRPFHNPRP | -0.0339
72 | RRIRSRPPRLPRPRPRPFHVPRP | -0.108
73 | RRIRSRPPRLPRPRPRPFIHPRP | -0.154
74 | RRIRSRPPRLPRPRPRPFLCPRP | -0.634
75 | RRIRSRPPRLPRPRPRPFLWPRP | -0.0904
